{"source": "paper PMC2570549", "key": {"human thrombin (human) [1]": {"target": "human thrombin (human)"}, "human thrombin (human) [2]": {"target": "human thrombin (human)", "remark": "listed apart in the source"}}, "data": [{"substance": "Serp-1, secreted myxoma viral serpin (recombinant) (from UniProt P12393 1-369) (natural protein)", "values": [{"measurement": "inhibition of thrombin activity (chromogenic substrate S-2238), 19 ng Serp-1 in the presence of heparin (0.2 IU), thrombin 0.002 NIH units", "setting": "human thrombin (human) [1]", "result": 75, "unit": "%"}, {"measurement": "inhibition of thrombin activity (chromogenic substrate S-2238), no heparin, thrombin 0.002 NIH units, Serp-1 1250, 600 and 300 ng (75%, 65%, 25%); no inhibition at or below 150 ng", "setting": "human thrombin (human) [1]", "result": 75, "unit": "%"}, {"measurement": "inhibition of thrombin (0.125 NIH units) by Serp-1 at 500 ng over 1 to 20 minutes, no heparin, discontinuous chromogenic assay", "setting": "human thrombin (human) [2]", "result": 86, "unit": "%"}]}]}
